T1: Csa5 (UniProt Q97Y90 1-150)
T1 sequence: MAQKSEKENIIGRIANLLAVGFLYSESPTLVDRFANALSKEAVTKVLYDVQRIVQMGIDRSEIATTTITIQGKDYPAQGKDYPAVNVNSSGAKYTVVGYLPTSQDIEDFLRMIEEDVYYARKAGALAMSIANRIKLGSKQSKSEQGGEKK

T2: Cas5 (Cas5/Cas7 core complex);Cas7 (Cas5/Cas7 core complex) (Sulfolobus solfataricus P2?;Sulfolobus …, UniProt Q97Y92;Q97Y91 1-240;1-321, |)
T2 sequence 1: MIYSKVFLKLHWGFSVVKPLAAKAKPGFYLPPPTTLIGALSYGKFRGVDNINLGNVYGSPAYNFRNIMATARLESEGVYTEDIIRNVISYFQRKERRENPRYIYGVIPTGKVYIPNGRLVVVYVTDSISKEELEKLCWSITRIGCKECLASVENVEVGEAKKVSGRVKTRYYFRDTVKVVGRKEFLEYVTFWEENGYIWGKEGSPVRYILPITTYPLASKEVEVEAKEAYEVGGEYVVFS
T2 sequence 2: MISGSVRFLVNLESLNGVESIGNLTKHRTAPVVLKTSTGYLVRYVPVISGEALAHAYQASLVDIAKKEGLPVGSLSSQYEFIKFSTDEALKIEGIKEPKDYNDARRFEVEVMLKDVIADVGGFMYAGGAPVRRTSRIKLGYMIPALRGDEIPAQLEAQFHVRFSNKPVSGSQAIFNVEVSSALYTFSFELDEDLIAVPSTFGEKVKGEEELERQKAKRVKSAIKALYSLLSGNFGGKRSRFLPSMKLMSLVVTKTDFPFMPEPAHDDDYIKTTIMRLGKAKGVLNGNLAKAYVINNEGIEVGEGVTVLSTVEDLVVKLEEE


Experiments:
crystal structure = molecular target: the molecule itself; test: crystal structure
SEC = molecular target: the molecule itself; test: SEC
Csa5 = molecular target: T1, Csa5; test: fluorescence anisotropy
[1] = molecular target: T2, Cas5 (Cas5/Cas7 core complex);Cas7 …; test: fluorescence anisotropy

Binder | binding result (Csa5) | also measured
Sso1398 (Csa5 paralog), selenomethionyl derivative (natural protein, S. solfataricus, selenomethionine in place of methionine) MEASEPVAETISKRFWTLIKMLRFYVVLRRFGYIDPLIYSIDPKQIKDVLSEALREFVSYTSSSSSRSIVIYDDPKNPVTAQAPCLVVAKRDEIPQNFPSIYRYTIYKIDKSSEYCISPLVVNDKYATLITPNESVIKEFFDKLDSNIQYARVLASLAVGGE |  | binding result (crystal structure): binds
Sso1398 wild type (Csa5 paralog) (natural protein, S. solfataricus) MEASEPVAETISKRFWTLIKMLRFYVVLRRFGYIDPLIYSIDPKQIKDVLSEALREFVSYTSSSSSRSIVIYDDPKNPVTAQAPCLVVAKRDEIPQNFPSIYRYTIYKIDKSSEYCISPLVVNDKYATLITPNESVIKEFFDKLDSNIQYARVLASLAVGGE |  | binding result (SEC): binds
crRNA (spacer 26, CRISPR locus A) (ssRNA) RNA: AUUGAAAGACCAUACCCAACUUCUAACAACGUCGUUCUUAACAACGGAUUAAUCCCAAAA | no binding | Kd [1]: 1380 ± 140 nM
crRNA/protospacer heteroduplex (DNA:RNA) RNA: AUUGAAAGACCAUACCCAACUUCUAACAACGUCGUUCUUAACAACGGAUUAAUCCCAAAA DNA: GATCCTCTCCACGTTGTTAAGAACGACGTTGTTAGAAGTTGGGTATGGTTGGCTG | no binding | 
CCTCGAGGGATCCGTCCTAGCAAGCCGCTGCTACCGGAAGCTTCTGGACC (ssDNA) [non-target ssDNA] | no binding | 

— article PMC3737334 (RNA Biology, 2013)
